# Assay: yeast display, Sf9 membrane polyspecificity reagent, FACS + sequencing; frameworks hold sequencing errors
# How it was run: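 Galactose induction of a Saccharomyces cerevisiae BJ5465 synthetic nanobody display library ran 36–48 hours. The cells were then stained for 1 hour at 4 °C with 10% biotinylated, detergent-solubilized Sf9 membrane reagent, pulled down on streptavidin microbeads and FACS-sorted into low and high (top ~1%) gates on expression and reagent-binding fluorescence. Labels for polyreactivity follow the gate of origin.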
row,Sequence,polyreactivity (PSR sort gate)
1,QVQLVESGGGLVQAGCSLRLTCAASGSIFRTNAMGWSRQAPGKERELVAAITGSGGSTYYADSVKGRFTISRDNAKNTVYLQMNSLKPEDTAVYYCAAEFGSFVSPYNYYFWGLGTQVTVSS,low polyreactivity
2,QVQLVESGGGLVQAGCSLRLTCPASGSIIKLYAMGWYRQAPGKEREMVAAITSVGSTYYADSVKGRFTISRDNAKNTVYFQMKSLKPEDTAVYYCAASVYYLYFHAKYDYWGQGTLVTVSS,low polyreactivity
3,QVQLVESGGGLVQAGCSLSISCAASGSTFFRYAMGLYRQAPGKERELVAAISKSGASTYYADSVKGSFTISRDNAKNTVYLQMNRLKPEDTAVYYCNADVKKSSAREWQYCYDYWGQGTQVTVSS,low polyreactivity
4,QVQLVESGGGLVQAGDSLRLSCAASGIILLSYAMGWYRQAPGKERELVAAITSGGGTNYADSVKGRFTISRDNAKNTVYLQMNSLKPEDTAVYYCAVGAYAGLYYYWGQGTQVTVSS,low polyreactivity
5,QVQLVESGGGLVQAGGCLRISFAASGLTFVWYGMGWYRPATGKERELVAAITSVRTTYYADSVKGRFTISRDNAKNSVYLQMTSLKAEDSGFYYCAAQWAGYGDLPWPYSVIVEFYYWGQGSQVTVSS,low polyreactivity
6,QVQLVESGGGLVQAGGCLRLSCAASGFIFYVNAMGWYRLAPGKERELVAAISSSGTRTYYADSVKGRFTISRDNAKNTVYLQMNSLKPEDTAVYYCNAAQSVELGYDYWGQGTQVTVSS,high polyreactivity
7,QVQLVESGGGLVQAGGCLRLSCAASGVIFTRNVMGWYRQAPGKERELVAAISSGGRTYYADSVKGRFTISRDNAKNTVYLQMNSLKQEDTAVYYCNAGNRGVYRYDYWGQGTQVTVSS,high polyreactivity
8,QVQLVESGGGLVQAGGCLRLSCAASGYIFRVYDMGWYRQAPGKERELVAAISGSGGRTYYADSVKGRFTISRDNAKNTVYLQMISLKPEDTAVYDCSAYRVSEYDYWGQGTQVTVSS,high polyreactivity
9,QVQLVESGGGLVQAGGCLRLSCAASVRTFYYYAMGWYRQAPGKEMELVAAITSTGGSTYYADSVKGRFTISRDNAKNTVYLQMNSLKPEDTAVYYCNTDPYTTQWYTTWFEYWGQGTQVTVSS,low polyreactivity
10,QVQLVESGGGLVQAGGILLLSCAASGFIFWYYTMGWYKQAPGKERELVAAINSGGSTNYPDSVKGRFTSSRDNAKNTVYLQMNSLKPEDTAVYYCAALVWYSGELFYYWGQGTQVTVSS,low polyreactivity
11,QVQLVESGGGLVQAGGILRISCAAYGSIFLAYVMGWYRQAPGKERELVAAISYRGGSTYYADSVKGRFTISRDNSKNTVYLQMNSLKPEDTAVYYCAAEHLWGLYNYWGQGTQVTVSS,low polyreactivity
12,QVQLVESGGGLVQAGGILRLSCAASGFIFGYYGMGWYRQAPGKERELVAAISRSGGGTFYAVSVKGRFTISRDNAKNTVYLQMNSLKPEDTAVYYCNAKYYRKSGLSGAYPYYYWGQGTQVTVSS,high polyreactivity
13,QVQLVESGGGLVQAGGILRLSCAASGFTFDFNAMGWYRQAPGKERELVAAISSGASTNYADSVKGRYTISRDNAKNTVYLQMNRVIPLDSEVYYCAVYFYGSSTRSYQARFDYWGQGTQVTVSS,high polyreactivity
14,QVQLVESGGGLVQAGGILRLSCAASGFTFSWYAMGWYRQAPGKERELVAAINADGGTTYYADSVKGRFTISRDNAKNTVYLQMNSLKPEDTAVYYCAAELSVDKYDYWGQGTQVTVSS,low polyreactivity
15,QVQLVESGGGLVQAGGILRLSCAASGFTLADNTMVWYRQSPGKERELVADITSGASTYYADSVKGRFTISRDNAKNTVYLQMNSLKPEDTAVYYCAALYYWRSGYDYWGQGTQVTVSS,low polyreactivity
16,QVQLVESGGGLVQAGGILRLSCAASGIILYINAMGWYRQAPGKERELVAAITSDGSTNYADSVKGRITISRDNAKYTVYLQMNSLKPEDTAVYYCAVDLPWGTGVSQYPESDYWGQGTQVTVSS,low polyreactivity
17,QVQLVESGGGLVQAGGILRLSCAASGRIFGYNAMGWYRQAPGKERELVAAIRQRAGSTNYADSVKGRFTISRDNSKNTVYLQMKSLKPEDTAVYYCAVDGNFFGEVRPYDYWGQGSQVTVSS,low polyreactivity
18,QVQLVESGGGLVQAGGILRLSCAASGRIFKTYAMGWYRQAPGKERELVAAITASGGRTYYADSVKGRFTISRDNAKNTVYLQMNSLKPEDTAVYYCAADSGNEYDYWGQGTQVTVSS,low polyreactivity
19,QVQLVESGGGLVQAGGILRLSCAASGRIFQPYAMGWYRQAPGKERELVAAISRGGTTYYADSVKGRFTISRDNAKNTVYLQMNSLKTEDTAVYYCAAPSYYRYDYWGQGTQVTVSS,high polyreactivity
20,QVQLVESGGGLVQAGGILRLSCAASGRTFGLYAMGRYRQAPGKERELVAAITRSDGGTNYADSVKGRFTISRDNAKNTVYLQMNSLKAEDTAVYYCAVDLGYVSHVSWYAYEYWGQGTQVTVSS,low polyreactivity
21,QVQLVESGGGLVQAGGILRLSCAASGRTFLYYAMGWYRQAPGKERELVAGITSGGSTNYADSVKGRFTISRDTAKNTDYLQMNSLKPEDTAVYYCAVDQGYYRTADVNYDYWGQGTQVTVSS,low polyreactivity
22,QVQLVESGGGLVQAGGILRLSCAASGSIFEYNAMGRYRKPPGKERELCASISWSGGSTYYADSVKGRYTISRDNAKNTVYLQMYSLKPEATAVYYCNVRKWSRWFRESYYWGQGTQVTVSS,high polyreactivity

row,Sequence,polyreactivity (PSR sort gate)
1,QVQLVESGGGLVQAGGILRLSCAASGSIFGWYAMGWYRQAPGKERELVAGISWSGANTYYADSVKGRFTISRDNAKNTVYLQMNSLKPEDTAVYYCAAGPGRYYSRRYGYWGQGTQVTVSS,high polyreactivity
2,QVQLVESGGGLVQAGGILRLSCAASGSIFIYYAMVWYRQAPGKERELVAAISSSGGRTYYADSVKGRFTISRDNAKNTVYLQMNSLTPEDTAVYYCNAVGRRWYRDPARYNEYNYWGQGTQVTVSS,high polyreactivity
3,QVQLVESGGGLVQAGGILRLSCAASGSIFNRNAMGWYRQAPGKEREFVADISWSGGSTYYADSVKGRFTISRDNAKNTVYLQMNSLKPEDTAVYYCAAKSTGRWWRAGYVYWGQGTQVTVSS,high polyreactivity
4,QVQLVESGGGLVQAGGILRLSCAASGSIFQTNAMGWYRPAPGKERELVAAISQRGGRTYYADSVKGRFTISRDYAKNTVYLHLKSLKPEDTAVYYGAATQSQRVHAARYGYWGQGSQVTVSS,high polyreactivity
5,QVQLVESGGGLVQAGGILRLSCAASGSIFYHYAMGWYRQAPGKDREFVAAITRRGTSTYYADSVKGRFTISRDIAKKTVYLQMNSLKPEDTAVYYWAARYGPNMDYWGQGTQVTVSS,high polyreactivity
6,QVQLVESGGGLVQAGGILRLSCAASGSIVVGYAMGWYRPAPGKERELVGAITGSGTRTDYADSVKGRFTISRDNAKNPVYLHMNSLKPEDTAVYNCAAPMSYKNVKYDYWGQGTQVTVSS,low polyreactivity
7,QVQLVESGGGLVQAGGILRLSCAASGSNFWTNAMGWYRQAPGKERELVARISPGGSTNYADSVKGRFTISRDNAKNTVYLQMNSLKPEDTAVYYCAAQRGYVYGYDYWGQGTQVTVSS,low polyreactivity
8,QVQLVESGGGLVQAGGILRLSCAASGSTFGYYAMGWYRPAPGKERELVAAIRSDDITYYADSVKGRFTISRDNAKNTVYLQMISLKPEDTAVYYCAVSQRYGGRRGCYWGQGTQVTVSS,low polyreactivity
9,QVQLVESGGGLVQAGGILRLSCAASGSTFIYNAMGLYRQAPGKEREFVASISASGGSTRYADSVKGRFTISRDNAKNTVYLQMNSLKQEDTAVYYCAKLLYLGRWRFPAGYNHWGQGTQVTVSS,high polyreactivity
10,QVQLVESGGGLVQAGGILRLSCAASGSTFNDYAMGRYRQAPGKERELVAAISASGSITYYADSVKGRFTISRDIAKNTVNLQMISLKPEDTAVYYCNARGYRGYDYWGQGTQVTVSS,high polyreactivity
11,QVQLVESGGGLVQAGGILRLSCAASGSTFRIYAKGWYRPAPGKERELVAGIRSSGGSTYYADSVKGRFTISRDKAKNTDYLQLNSLKPEDTAVYYCAKRHPYSWGSYQRYNYWGQGTQVTVSS,low polyreactivity
12,QVQLVESGGGLVQAGGILRLSCAASGSTFSYYAMGWYRQAPGKERELVARISKDTGSTYYADSVKGRFTISRDNAKNTVYLQMNSLKPEDTAVYYCAAELDYFPGYDYWGQGTQVTVSS,low polyreactivity
13,QVQLVESGGGLVQAGGILRLSCAASGSTFYRNAMGWYRQEPGKEREFVAAISFRGGGTYADSVKGRFTISRDNAKNTVYLQMNSLKPEDSAVYYCAAESKPRWYVRYDYWGQGTQVTVSS,low polyreactivity
14,QVQLVESGGGLVQAGGILRLSCAASVRIFGVYAMGWYRQAPGKERELVAAITSGGSTTYADSVKGRFTISRDNAKNNVYLQMNSLKQEDTAVYYCNKEPQPFFLYGYWGQGTQVTVSS,low polyreactivity
15,QVQLVESGGGLVQAGGILRLSCAAYGRTFYLYTMGWYRQEPGKERELVAAISRGGRTYADSVKGRFTISRDNAKNTVYLQMNSLKPEDTAVYYCADRGYFYYSRYDSWGQGTQVTVSS,low polyreactivity
16,QVQLVESGGGLVQAGGILRLSCDASGRIFYSYAMGWYRQAHGKERVLVAAIDESVGSKYYADSVKGRFTISRDNAKNTVYLHMNSLKREDTAVYYCAADYLLVLFYYWGQGTQVTVSS,low polyreactivity
17,QVQLVESGGGLVQAGGILRLSCPASGIIIPLYAMGWYIQAPGKERELVATINIGGSTNYADSVKGRFTISRDNAKNTVYLQMNSLKPEDTAVYYCAADVDSLQRYESWGQGTQVTVSS,low polyreactivity
18,QVQLVESGGGLVQAGGILRLSFAASGSTFYPNTMGWYRQAPGKERELVAAITNGGSTNYADSVKGRFTIARDNAKNTVYLQMNSLKPEDTAVYDCAADGYDQWGRDVVYLIWTSYDYWGQGTQVTVSS,high polyreactivity
19,QVQLVESGGGLVQAGGILRLSSAASGFTFSRNAMGWYRQAPGKERELVASISGRGGRTYYADSVKGRFTISRDNAKNTVSLQMNSLKPEDTAVYDCAARWRQRKSVRYGQQGYDYWGQGTQVSVSS,high polyreactivity
20,QVQLVESGGGLVQAGGNLRLSCAASGFIFTRYAMGWYRQAPGKERELVAAISTSGDRTYYADSVKGRFTISRDNAKNTVYLQMNSLKPEDTAVYYCATSKSYSSKLYDYWGQGTQVTVSS,high polyreactivity
21,QVQLVESGGGLVQAGGNLRLSCAASGGIFYLYAMGWYRPAPGKERELVASINWRSATTYYADSVKGRFTISRDNAKNTVYLQMNSLKPEDTAVYYCNVQWYGGYDYWGQGSQVTVSS,low polyreactivity

# From the nanobody polyreactivity screen of Harvey et al. (2022)
